T1: recombinant hAng-2 (a recombinant human angiopoietin-2 protein with an attached His tag; R&D Systems) (human, UniProt O15123 19-496)
T1 construct: Bought reagent; not shown: His tag
T1 sequence (looked up): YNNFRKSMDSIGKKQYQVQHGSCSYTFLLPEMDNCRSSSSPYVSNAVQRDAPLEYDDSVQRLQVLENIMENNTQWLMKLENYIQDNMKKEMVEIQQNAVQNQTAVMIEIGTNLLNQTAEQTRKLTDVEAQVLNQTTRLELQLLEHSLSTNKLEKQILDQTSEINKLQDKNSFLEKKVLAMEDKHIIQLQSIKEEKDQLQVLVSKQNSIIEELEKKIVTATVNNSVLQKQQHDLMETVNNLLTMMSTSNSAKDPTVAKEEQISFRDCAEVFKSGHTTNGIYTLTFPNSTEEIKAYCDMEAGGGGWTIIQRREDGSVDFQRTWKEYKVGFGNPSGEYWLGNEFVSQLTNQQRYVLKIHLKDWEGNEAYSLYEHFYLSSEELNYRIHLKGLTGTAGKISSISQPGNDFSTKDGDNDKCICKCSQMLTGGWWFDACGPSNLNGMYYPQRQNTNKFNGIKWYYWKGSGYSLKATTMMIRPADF


Columns and labels:
[1] = target: T1, recombinant hAng-2 (a recombinant human …); assay: competitive ELISA: inhibition of 1 nM hAng-2 binding to coated hTie2-Fc
Method: A 96-well MaxiSorp™ flat-bottom plate (Nunc) was coated with recombinant human Tie2-Fc (hTie2-Fc) (R&D Systems, Inc.) dissolved in DMEM culture containing 50 μg/ml bovine serum albumin (BSA). The hTie-2Fc is a chimeric protein including the water-soluble extracellular region of human Tie-2 and the Fc fragment of human IgG₁. The concentration of hTie2-Fc immobilized was equivalent to 75% of its maximum binding concentration with 1 nM of recombinant hAng-2 (a recombinant human angiopoietin-2 protein with an attached His tag; R&D Systems). The plate was washed with Phosphate Buffered Saline (PBS) containing 0.1% TWEEN-20 five times and blocked with PBS containing 5% BSA at room temperature for two hours. To perform an ELISA experiment for determining whether binding between angiopoietin-2 and Tie-2 was neutralized, each of the monoclonal antibodies SAIT-Ang-2-5 and SAIT-Ang-2-6 prepared according to Example 1 were serially diluted from 100 nM by one-fourth each time with PBS containing 1% BSA and 1 nM hAng-2 and adjusted to a concentration of 6.1 pM. […] The OD₄₅₀ value was read on a plate reader (Molecular Devices). […] Based on the results, each of the monoclonal antibodies SAIT-Ang-2-5 and SAIT-Ang-2-6 of Example 1 was determined to be capable of neutralizing binding between angiopoietin-2 and Tie-2 (refer to Table 1).

[2] = target: T1, recombinant hAng-2 (a recombinant human …); assay: SPR (BIAcore T100), hAng-2 amine-coupled on CM5 chip, antibody as analyte
Method: The affinity of each of the monoclonal antibodies SAIT-Ang-2-5 and SAIT-Ang-2-6 of Example 1 to angiopoietin-2 was measured using a surface plasmon resonance (SPR) device (BIAcore T100, GE Healthcare). 20 μg/ml recombinant hAng-2 (R&D Systems) was immobilized on a CM5 chip (GE Healthcare) using a pH 4.5 acetate solution and an amine coupling kit (GE Healthcare). Each of the monoclonal antibodies SAIT-Ang-2-5 and SAIT-Ang-2-6 of Example 1 was diluted to eight different concentrations down to 0.78125 nM by serially diluting to ½ each time starting from 100 nM. Then, the antigen/antibody affinity was measured by binding each antibody with the antigen immobilized on the CM5 chip and dissociating the antigen from the antibody using a pH2.2 glycine-HCl solution. […] From the results, the affinity of each monoclonal antibody SAIT-Ang-2-5 and SAIT-Ang-2-6 of Example 1 to angiopoietin-2 was determined.

Row | IC50 [1] [nM] | Kd [2] [nM] | koff [2] [s⁻¹] | kon [2] [M⁻¹ s⁻¹] | Binder
1 | 1.86 | 1.27 | 0.00207 | 1.64e+06 | Monoclonal antibody SAIT-Ang-2-6 (antibody, V domains shown, also called antibody of hybridoma KCLRF-BP-00222) VH: QVQLQQPGSELVRPGTSVKLSCKASGYTFTNYLMHWVKQRPGQGLEWIGNIYPGSGATNYDEKFKSKATLTVDISSSTAYMQLISLTSEDSAVYYCTRDDYDGSWFAYWGQGTLVTVSA VL: DIVMTQSPSSLSVSAGEKVTMTCKSSQSLLISGNQKNFLAWYQQKPGQPPKLLIYGASTRDSGVPDRFTGSGSGTDFTLTISSVQAEDLAVYYCQNDHSYPLTFGTGTKLELK
2 | 0.764 | 0.902 | 0.00178 | 1.97e+06 | Monoclonal antibody SAIT-Ang-2-5 (antibody, V domains shown, also called antibody of hybridoma KCLRF-BP-00221) VH: DVQLVESGGGLAQPGGSRKLSCAASGFTFSNFGMHWVRQAPEKGLDWVAYISSGSDTIYYADTVKGRFTISRDNPKNTLFLQMTSLRSEDTAMYYCARESTMITMGYVLDYWGQGTSVTVSS VL: DIQMTQSPASQSASLGESVTITCLASQTIGTWLAWYQQKPGKSPQLLIYAATSLADGVPSRFSGSGSGTKFSLKISSLQAEDFVSYYCQQLYSIPLTIGAGTKLELK
